Measured values as given in patent US11786578B2, “Modified relaxin polypeptides and their uses” (AMBRX, INC., priority 2010, dated 2023).
Like-named read-outs stand apart in the source and are kept apart here. Each block holds one molecule with its values, some of them ahead of it.

Experiments:
in vivo = conditions: for Mean Conc.: male SD rats
From the text: This example evaluates the pharmacokinetic properties of wild-type (WT) Relaxin compound following a single subcutaneous injection in SD rats.
SD Rats were received from Charles River Laboratories (CRL) at approximately […] of age (approximately 280 g at study start). The animals were received having been jugular vein catheterized at CRL. Animals then acclimated for 3 days prior to being placed on study.
Animals received a single subcutaneous injection on day 1 and PK samples were collected over the subsequent 12 hours. Blood samples were taken from animals treated with WT rhRelaxin for analysis of serum concentration according to the following sampling schedule (sampling times are approximate): Day 1: pre-dose, 0.33, 0.66, 1, 1.5, 2, 3, 4, 5, 6, 9 and 12 hours post-dose.
Compound concentrations were measured using a bridging ECLA based on an assay which was developed at Ambrx. Concentrations were calculated using a standard curve generated from the corresponding dosed compound and reported in an excel spreadsheet format (see appendix). Pharmacokinetic parameters were estimated using the modeling program WinNonlin (Pharsight, version 5.1). Noncompartmental analysis for individual animal data with linear-up/log-down trapezoidal integration was used, and concentration data was uniformly weighted.
Concentration versus time curves were evaluated by non-compartmental analysis (Pharsight, version 4.1). N=5 rats per group, terminal HL, terminal half-life; Cmax, maximum serum concentration measured; Tmax, time at which Cmax occurred: AUCinf, area under the concentration-time curve for all serum sample/timepoints extrapolated to infinity; Cl, apparent total serum clearance; Vz, apparent volume of distribution during terminal phase. Numbers are mean with SD in parentheses.

[1] = IV; cited from earlier work
human RXFP3 [2] = target: T1, human RXFP3 (Homo sapiens, UniProt Q9NSD7); test: Inhibition of forskolin-induced cAMP in human RXFP3/CHO-K1 stable line; assay type: cell-based; conditions: CHO-K1 stable line
T1 sequence (Q9NSD7 1-469): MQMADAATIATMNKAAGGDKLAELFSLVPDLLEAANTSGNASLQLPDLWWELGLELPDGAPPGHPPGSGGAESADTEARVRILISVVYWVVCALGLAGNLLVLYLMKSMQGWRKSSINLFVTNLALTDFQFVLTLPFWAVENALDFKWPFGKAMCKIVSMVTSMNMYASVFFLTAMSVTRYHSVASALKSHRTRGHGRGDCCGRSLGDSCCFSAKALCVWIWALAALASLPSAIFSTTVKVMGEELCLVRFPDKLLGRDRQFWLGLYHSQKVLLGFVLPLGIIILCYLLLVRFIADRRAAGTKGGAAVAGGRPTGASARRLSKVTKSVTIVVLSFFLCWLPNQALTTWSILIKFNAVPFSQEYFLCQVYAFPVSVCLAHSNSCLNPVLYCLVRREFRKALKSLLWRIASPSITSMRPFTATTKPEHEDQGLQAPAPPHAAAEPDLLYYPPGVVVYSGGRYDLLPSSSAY
From the text: (§1) The RXFP cDNAs, RXFP family members, as well as species orthologs, were obtained from commercially available cDNA clones or amplified from tissue RNAs as follows. Human RXFP1: A cDNA clone was obtained from OpenBiosystems (MHS4426-99239031. Human RXFP2: A cDNA clone for transcript variant 1 was obtained from OpenBiosystems (OHS4559-99620528). Cynomolgus monkey RXFP1: The cDNA was cloned out of Mauritian cyno brain RNA by RT-PCR using the following primers: forward: 5′-[…]-3′ (SEQ ID NO: 37); reverse: 5′-[…]-3′ (SEQ ID NO: 38). Dog RXFP1: The cDNA was cloned out of dog brain RNA by RT-PCR using the following primers: forward: 5′-[…]-3′ (SEQ ID NO: 39); reverse: 5′-[…]-3′ (SEQ ID NO: 40). Rat RXFP1: The cDNA was cloned out of Sprague Dawley rat brain RNA by RT-PCR using the following primers: forward: 5′-[…]-3′ (SEQ ID NO: 41); reverse: 5′-[…]-3 (SEQ ID NO: 42)′. Human RXFP3: A Gateway entry clone in vector pDONR221 was obtained from Invitrogen (IOH28381). Human RXFP4: A Gateway entry clone in vector pDONR201 was obtained. Mouse RXFP1: A Gateway entry clone in vector pDONR223 was obtained from OpenBiosystems (OMM4760-101549000). Using standard procedures (Gateway LR recombination), the RXFP entry clones were transferred into expression vector pEF-DEST51 (Invitrogen). In contrast to the all other RXFP clones, human RXFP4 was transferred into pcDNA3.1 (Invitrogen). […]

human RXFP4 [3] = target: T2, human RXFP4 (Homo sapiens, UniProt Q8TDU9); test: Inhibition of forskolin-induced cAMP in human RXFP4/CHO-K1 stable line; assay type: cell-based
T2 construct: expressed in transfected cells
T2 sequence (Q8TDU9 whole entry): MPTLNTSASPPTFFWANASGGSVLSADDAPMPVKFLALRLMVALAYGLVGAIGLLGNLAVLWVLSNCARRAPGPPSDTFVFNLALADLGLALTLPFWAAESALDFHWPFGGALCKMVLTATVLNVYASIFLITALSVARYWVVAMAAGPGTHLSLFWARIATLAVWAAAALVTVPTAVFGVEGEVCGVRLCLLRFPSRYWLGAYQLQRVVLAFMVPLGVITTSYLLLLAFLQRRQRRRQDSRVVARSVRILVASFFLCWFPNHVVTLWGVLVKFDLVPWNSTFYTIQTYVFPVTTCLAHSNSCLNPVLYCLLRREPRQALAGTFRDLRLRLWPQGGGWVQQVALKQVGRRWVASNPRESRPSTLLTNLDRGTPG
From the text: The RXFP cDNAs, RXFP family members, as well as species orthologs, were obtained from commercially available cDNA clones or amplified from tissue RNAs as follows. Human RXFP1: A cDNA clone was obtained from OpenBiosystems (MHS4426-99239031. Human RXFP2: A cDNA clone for transcript variant 1 was obtained from OpenBiosystems (OHS4559-99620528). Cynomolgus monkey RXFP1: The cDNA was cloned out of Mauritian cyno brain RNA by RT-PCR using the following primers: forward: 5′-[…]-3′ (SEQ ID NO: 37); reverse: 5′-[…]-3′ (SEQ ID NO: 38). Dog RXFP1: The cDNA was cloned out of dog brain RNA by RT-PCR using the following primers: forward: 5′-[…]-3′ (SEQ ID NO: 39); reverse: 5′-[…]-3′ (SEQ ID NO: 40). Rat RXFP1: The cDNA was cloned out of Sprague Dawley rat brain RNA by RT-PCR using the following primers: forward: 5′-[…]-3′ (SEQ ID NO: 41); reverse: 5′-[…]-3 (SEQ ID NO: 42)′. Human RXFP3: A Gateway entry clone in vector pDONR221 was obtained from Invitrogen (IOH28381). Human RXFP4: A Gateway entry clone in vector pDONR201 was obtained. Mouse RXFP1: A Gateway entry clone in vector pDONR223 was obtained from OpenBiosystems (OMM4760-101549000). Using standard procedures (Gateway LR recombination), the RXFP entry clones were transferred into expression vector pEF-DEST51 (Invitrogen). In contrast to the all other RXFP clones, human RXFP4 was transferred into pcDNA3.1 (Invitrogen). For each construct, the RXFP cDNA, as well as its proper insertion into the expression vector, was verified by DNA sequencing.
CHO-K1 cells (ATCC #CRL-9618) were prepared for stable line generation by propagating at 37° C. with 5% CO2 in F-12 plus GlutaMAX-I medium (GIBCO #31765) supplemented with 10% fetal bovine heat-inactivated serum (Invitrogen #16140), and 1× Antibiotic-Antimycotic (GIBCO #15240-096). CHO-K1 cells were transfected with 12 μg of the appropriate expression construct plasmid using the FuGENE® 6 reagent (Roche #11814443 001) and the protocol provided by the manufacturer. One day post-transfection cells were replated into medium containing 10 μg of Blasticidin S HCl per mL (GIBCO #A11139-02). […]

[4] = tested on: primary human cardiac fibroblasts (NHCF-V); conditions: 1 nM
Description: NHCF-V cells were isolated from the ventricle of normal, adult heart tissue. Cells stained positive for smooth muscle α-actin and expressed ≥90% collagen I and ≤10% Von Willebrand factor VIII. Cells at passages 3 through 6 were used for the real-time quantitative reverse transcription-polymerase chain reaction (qRT-PCR) studies. Cells were cultured in FGM™-3 BulletKit™ (Cat. #: CC-4526, Lonza) containing 10% FBS complete medium. At confluence, cells were split and cultured in 6-well plates at a density of 150,000/well for 24 hr in complete medium.
Alter treatment, cells in 6-well plates were harvested or total RN A extraction and qRT-PCR analysis. Total RNA was extracted using the RNeasy Mini Kit (Cat. #: 74106, Qiagen) according to the manufacturer's protocols including the on-column removal of genomic cDNA. Real-time qRT-PCR was performed in a two-step manner; cDNA synthesis and real-time detection were carried out in a PTC-100 Thermal Cycler (MJ Research) and an ABI Prism 7700 Sequence Detection System (Applied Biosystems), respectively. TaqMan Universal PCR Master Mix (Applied Biosystems) was used in subsequent PCR reactions according to the manufacturer's protocols. All qRT-PCR reactions were performed in duplicate. […] Data were analyzed for significance by two-way ANOVA followed by a Bonferroni's multiple comparison test using GraphPad Prism Software, version 5.0.

human RXFP3 [5] = target: T1, human RXFP3; conditions: literature value; read-out: EC50 value reported in the literature, human RXFP3; cited from earlier work
human RXFP4 [6] = target: T2, human RXFP4; conditions: literature value; read-out: EC50 value reported in the literature, human RXFP4; cited from earlier work
human RXFP2 [7] = target: T3, human RXFP2 (Homo sapiens, UniProt Q8WXD0); test: cAMP assay in human RXFP2/CHO-K1 stable line; assay type: cell-based; conditions: CHO-K1 stable line
T3 sequence (Q8WXD0 whole entry): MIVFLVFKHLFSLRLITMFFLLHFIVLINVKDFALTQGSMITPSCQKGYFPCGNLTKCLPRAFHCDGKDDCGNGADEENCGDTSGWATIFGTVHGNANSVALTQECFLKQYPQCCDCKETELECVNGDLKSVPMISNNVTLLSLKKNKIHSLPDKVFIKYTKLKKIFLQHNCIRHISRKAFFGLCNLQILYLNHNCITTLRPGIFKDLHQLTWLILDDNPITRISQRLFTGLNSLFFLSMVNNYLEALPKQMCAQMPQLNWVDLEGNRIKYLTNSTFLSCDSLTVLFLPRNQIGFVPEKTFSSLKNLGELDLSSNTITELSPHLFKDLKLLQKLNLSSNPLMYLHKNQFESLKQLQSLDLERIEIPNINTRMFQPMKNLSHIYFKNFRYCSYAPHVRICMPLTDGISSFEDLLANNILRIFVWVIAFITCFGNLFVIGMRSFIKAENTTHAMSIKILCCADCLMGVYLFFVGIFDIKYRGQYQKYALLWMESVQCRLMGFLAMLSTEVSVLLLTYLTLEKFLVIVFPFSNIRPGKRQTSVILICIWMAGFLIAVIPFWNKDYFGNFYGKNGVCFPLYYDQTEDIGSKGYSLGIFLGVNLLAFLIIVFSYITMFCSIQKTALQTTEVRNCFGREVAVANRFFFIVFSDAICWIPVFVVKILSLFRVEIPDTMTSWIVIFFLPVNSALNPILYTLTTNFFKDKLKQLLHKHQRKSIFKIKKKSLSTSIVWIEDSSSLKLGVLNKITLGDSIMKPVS
From the text: as §1

human RXFP2 [8] = target: T3, human RXFP2; conditions: literature value; read-out: EC50 value reported in the literature, human RXFP2; cited from earlier work
[9] = 0.5 mg/kg SC, SD rats, mean (SD)
[10] = Sprague-Dawley, rat, serum, sc, 0.5 mg/kg
[11] = CHO-K1 stable line, inhibition of forskolin-induced cAMP

Molecule: CC[C@H](C)[C@@H]1NC(=O)[C@H](C)NC(=O)[C@H]([C@@H](C)CC)NC(=O)[C@H](CCC(N)=O)NC(=O)[C@H](C)NC(=O)[C@H](CCCNC(=N)N)NC(=O)[C@H](C(C)C)NC(=O)[C@H](CC(C)C)NC(=O)[C@H](CCC(=O)O)NC(=O)[C@H](CCCNC(=N)N)NC(=O)CNC(=O)[C@@H](NC(=O)[C@H](CC(C)C)NC(=O)[C@H](CCCCN)NC(=O)[C@@H](NC(=O)[C@@H](NC(=O)[C@H](CCC(=O)O)NC(=O)[C@H](CCC(=O)O)NC(=O)[C@H](CCSC)NC(=O)[C@H](Cc2c[nH]c3ccccc23)NC(=O)[C@H](CO)NC(=O)[C@@H](N)CC(=O)O)C(C)C)[C@@H](C)CC)CSSC[C@@H]2NC(=O)[C@@H](NC(=O)[C@H](CCCCN)NC(=O)[C@H](CC(N)=O)NC(=O)[C@H](C)NC(=O)[C@H](CC(C)C)NC(=O)[C@H](C)NC(=O)[C@H](CO)NC(=O)[C@H](Cc3ccc(O)cc3)NC(=O)[C@H](CC(C)C)NC(=O)[C@@H](N)CCC(N)=O)CSSC[C@H](NC(=O)CNC(=O)[C@H](C(C)C)NC(=O)[C@H](Cc3c[nH]cn3)NC2=O)C(=O)N[C@@H]([C@@H](C)O)C(=O)N[C@@H](CCCCN)C(=O)N[C@@H](CCCNC(=N)N)C(=O)N[C@@H](CO)C(=O)N[C@@H](CC(C)C)C(=O)N[C@@H](C)C(=O)N[C@@H](CCCNC(=N)N)C(=O)N[C@@H](Cc2ccccc2)C(=O)N[C@H](C(=O)O)CSSC[C@@H](C(=O)NCC(=O)N[C@@H](CCSC)C(=O)N[C@@H](CO)C(=O)N[C@H](C(=O)N[C@@H](Cc2c[nH]c3ccccc23)C(=O)N[C@@H](CO)C(=O)O)[C@@H](C)O)NC1=O [RLX-D-WT]
CL (mL/hr) (in vivo; [9]): 1006 (185) mL/hr
Vz (mL/kg) (in vivo; [9]): 1159 (284) mL/kg
AUC(0-inf) (in vivo; [10]): 509 ng·h/mL
Cmax (in vivo; [10]): 258 ng/mL
MRT (in vivo; [10]): 93.6 min
Tmax (in vivo; [10]): 30 min
half-life (in vivo; male, SD, rat, serum, sc, 0.5 mg/kg): 48 min
Mean Conc. (in vivo; serum, 0.5 mg/kg SC, 6 hr): BQL
Mean Conc. (in vivo; serum, 0.5 mg/kg SC, 9 hr): BQL
Mean Conc. (in vivo; serum, 0.5 mg/kg SC, 12 hr): BQL
Mean Conc. (in vivo; serum, 0.5 mg/kg SC, pre-dose (PD)): BQL
half-life of intravenously administrated Relaxin 2 in humans [1]: less than 10 minutes

Molecule: CC[C@H](C)[C@@H]1NC(=O)[C@H](C)NC(=O)[C@H]([C@@H](C)CC)NC(=O)[C@H](CCC(N)=O)NC(=O)[C@H](C)NC(=O)[C@H](CCCNC(=N)N)NC(=O)[C@H](C(C)C)NC(=O)[C@H](CC(C)C)NC(=O)[C@H](CCC(=O)O)NC(=O)[C@H](CCCNC(=N)N)NC(=O)CNC(=O)[C@@H](NC(=O)[C@H](CC(C)C)NC(=O)[C@H](CCCCN)NC(=O)[C@@H](NC(=O)[C@@H](NC(=O)[C@H](CCC(=O)O)NC(=O)[C@H](CCC(=O)O)NC(=O)[C@H](CCSC)NC(=O)[C@H](Cc2c[nH]c3ccccc23)NC(=O)[C@H](CO)NC(=O)[C@@H](N)CC(=O)O)C(C)C)[C@@H](C)CC)CSSC[C@@H]2NC(=O)[C@@H](NC(=O)[C@H](CCCCN)NC(=O)[C@H](CC(N)=O)NC(=O)[C@H](C)NC(=O)[C@H](CC(C)C)NC(=O)[C@H](C)NC(=O)[C@H](CO)NC(=O)[C@H](Cc3ccc(O)cc3)NC(=O)[C@H](CC(C)C)NC(=O)[C@@H](N)CCC(N)=O)CSSC[C@H](NC(=O)CNC(=O)[C@H](C(C)C)NC(=O)[C@H](Cc3c[nH]cn3)NC2=O)C(=O)N[C@@H]([C@@H](C)O)C(=O)N[C@@H](CCCCN)C(=O)N[C@@H](CCCNC(=N)N)C(=O)N[C@@H](CO)C(=O)N[C@@H](CC(C)C)C(=O)N[C@@H](C)C(=O)N[C@@H](CCCNC(=N)N)C(=O)N[C@@H](Cc2ccccc2)C(=O)N[C@H](C(=O)O)CSSC[C@@H](C(=O)NCC(=O)N[C@@H](CCSC)C(=O)N[C@@H](CO)C(=O)N[C@H](C(=O)N[C@@H](Cc2c[nH]c3ccccc23)C(=O)N[C@@H](CO)C(=O)O)[C@@H](C)O)NC1=O [WT-RLX]
cAMP Assay EC50, Human RXFP3 (human RXFP3 [2]): essentially inactive
cAMP Assay EC50, Human RXFP4 (human RXFP4 [3]; [11]): essentially inactive
Maximal inhibition of collagen type I expression vs TGF-β only treatment [4]: ≥ 70%

Second part, led by results:

EC50 (human RXFP3 [2]): 0.6 nM
Maximal inhibition of forskolin-induced cAMP, human RXFP4 (partial agonist activity) (human RXFP4 [3]): ~40%
EC50 (human RXFP4 [3]; [11]): 2.8 ± 1.5 nM
Molecule: H3-RLX: H3-relaxin, the endogenous ligand for RXFP3 and RXFP4 receptors, positive control
EC50 (human RXFP3 [5]): 0.4 nM
EC50 (human RXFP4 [6]): 1.1 nM

EC50 (human RXFP2 [7]): 0.46 ± 0.04 nM
B1: INSL3: endogenous ligand for RXFP2 (insulin like 3 protein), R&D Systems (protein, UniProt P51460 21-55; P51460 106-131, looked up)
Insulin-like 3 B chain: LGPAPTPEMREKLCGHHFVRALVRVCGGPRWSTEA
Insulin-like 3 A chain: AAATNPARYCCLSGCTQQDLLTLCPY
EC50 (human RXFP2 [8]): 0.58 nM
